Measured values reported in article PMC7846786, “DutaFabs are engineered therapeutic Fab fragments that can bind two targets simultaneously” (Nature Communications, 2021).

Key:
Settings in all cases: both partners purified
[1] = target: T1, PDGF-BB (Homo sapiens, UniProt P01127); test: kinetic exclusion assay (KinExA); in solution; 4 h pre-incubation of 50 pM DutaFab with 244 fM-4 nM PDGF-BB, or of 100 pM DutaFab with 122 fM-2 nM VEGFA-121; duplicate 1:2 titration series; 25 °C
T1 construct: platelet-derived growth factor subunit B, human, recombinant; homodimer PDGF-BB; as I recall, the commercial protein is the 109-residue mature B chain (residues 82-190 of the precursor); also called recombinant human PDGF-BB; source: 100-13A is printed for crystallization) and from R&D Systems

[2] = target: T1, PDGF-BB; test: as above; remark: listed apart in the source
[3] = target: T2, human VEGFA-121 (Homo sapiens, UniProt P15692); test: SPR; affinities of the Fab fragments used in the in-vivo study for human and rat VEGF-A121, expressed as KD (nM); who was immobilised and the conditions not given
T2 construct: homodimer

[4] = target: T3, rat VEGF-A121 (Rattus norvegicus, UniProt P16612-4, strain); test: as above
T3 construct: The homodimer is stated for VEGFA in general

[5] = target: T2, human VEGFA-121; test: kinetic exclusion assay (KinExA); in solution; 4 h pre-incubation of 50 pM DutaFab with 244 fM-4 nM PDGF-BB, or of 100 pM DutaFab with 122 fM-2 nM VEGFA-121; duplicate 1:2 titration series; 25 °C
[6] = target: T4, recombinant human VEGFA-121 (Homo sapiens, strain); test: ELISA; IC50 competition ELISA: rhVEGFR-1-Fc (1 µg/mL) or rhPDGFRβ-Fc (0.5 µg/mL) coated; ligand (5 pM VEGFA-165, 8 pM VEGFA-121 or 5 pM PDGF-BB) pre-incubated 1.5 h with 1:2 dilutions of Fab in PBS, 0.1% Tween-20, 1% BSA; 10 min on the plate at RT; free ligand detected with biotinylated anti-hVEGF or anti-hPDGF-BB goat IgG; 4-parameter fit
T4 construct: homodimer; Two suppliers are named for different experiments; also called VEGFA dimer; source: bought: Peprotech (catalog number 100-20A; panning, crystallisation); bought: Humanzyme (ELISAs)
T4 chain: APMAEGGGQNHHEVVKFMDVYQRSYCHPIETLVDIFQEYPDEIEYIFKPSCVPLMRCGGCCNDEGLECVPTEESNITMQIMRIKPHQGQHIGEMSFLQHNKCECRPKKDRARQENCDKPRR

[7] = target: T5, recombinant human VEGFA-165 (Homo sapiens, UniProt P15692-4, strain); test: as above
T5 construct: homodimer; source: bought: Humanzyme

[8] = target: T6, recombinant human PDGF-BB (human, UniProt P01127); test: as above
T6 construct: platelet-derived growth factor subunit B, human; homodimer; Two suppliers and two Peprotech catalogue numbers are printed; also called PDGF-BB dimer; source: bought: R&D Systems (ELISAs); bought: Peprotech (catalog number 100-14B for panning; 100-13A printed for crystallisation)
T6 sequence (P01127 82-190): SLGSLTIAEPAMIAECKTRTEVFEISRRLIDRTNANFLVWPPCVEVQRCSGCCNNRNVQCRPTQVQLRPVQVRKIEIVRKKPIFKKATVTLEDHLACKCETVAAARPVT

T1 sequence (P01127 82-190): as above
T2 sequence (P15692 other isoform, or with tags, fused parts or gaps): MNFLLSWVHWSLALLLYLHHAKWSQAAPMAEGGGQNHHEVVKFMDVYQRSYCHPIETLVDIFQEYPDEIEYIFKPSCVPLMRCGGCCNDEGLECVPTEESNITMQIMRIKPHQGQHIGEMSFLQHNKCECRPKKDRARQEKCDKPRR
T5 sequence (P15692 whole entry, looked up, change not shown): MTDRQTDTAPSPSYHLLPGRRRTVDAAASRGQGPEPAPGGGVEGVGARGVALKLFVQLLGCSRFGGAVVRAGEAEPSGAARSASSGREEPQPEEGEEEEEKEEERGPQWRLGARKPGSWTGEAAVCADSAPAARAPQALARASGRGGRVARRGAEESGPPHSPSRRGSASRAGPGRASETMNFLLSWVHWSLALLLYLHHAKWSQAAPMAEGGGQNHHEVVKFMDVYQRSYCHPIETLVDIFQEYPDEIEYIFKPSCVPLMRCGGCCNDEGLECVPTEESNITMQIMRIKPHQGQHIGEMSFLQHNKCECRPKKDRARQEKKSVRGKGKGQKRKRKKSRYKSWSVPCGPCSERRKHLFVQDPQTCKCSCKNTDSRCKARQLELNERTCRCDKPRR

B1: DutaFab VP mat YHE (Fab, V domains shown)
VH: DLQLVESGGGLVKPGGSLRLSCAADGWWFGYTDMSWVRQAPGKGLEWVGSISYKGGSTYYNTKFIGRFTISRDDDTNTLYLQMNSLRAEDTAVYYCARDDGYFDTWGQGTLVTVSS
VL: AIYMHQEPSSLSASVGDRVTITCHGSYWLSNYLAWYQQKPGKAPKLLIYDGKEREHGVPSRFSGSGSHEDYTLTISSLQPEDFATYYCQQYRYHPYTFGHGTKVEIK
notes: human CH1 constant domain, as the heavy chain of Dm1 (PDB 6T9D, 6T9E); that R108 may be the first residue of the UniProt entry, so it must not be doubled; Co-operativity variant of Dm1; the PDB entries hold the parent VP mat; also called clone VP mat YHE; source: periplasmatic expression in E. coli or HEK Expi293 cells, purified (kappa select, then cation exchange or SEC)
With B1 the Kd [1] was 4.02 pM, the Kd [2] was 6 pM and the Kd [3] was 5 pM. The Kd [4] was 43 pM and the Kd [5] was 3.23 pM.

B2: DutaFab clone VP (initial bispecific DutaFab against VEGFA and PDGF-BB) (Fab, V domains shown)
VH: EEQLVESGGGLVQPGGSLRLSCAASGWWFEYTDMSWVRQAPGQGLEWVGSISPSGGSTYYNTNFIGRFTISRDDSKNTLYLQMNSLRDEDTAVYYCARDEGYFDEWGQGTLVTVSS
VL: AIQMTQSPSSLSASVGDRVTITCQASYWLHKYLAWYQQKPGQAPKLLIYDASELEYGVPDRFSGSGSGTDFTLTISSLEPEDFAVYYCQNYRYHPYTFGQGTKLEIK
notes: human VH3 scaffold with CH1; H-side paratope against PDGF-BB; human Vk1 scaffold with Ck; L-side paratope against VEGFA; Bispecific Fab with two paratopes in one Fv; also called DutaFab VP; original bispecific DutaFab VP; source: periplasmic expression in E. coli or HEK Expi293 cells, purified (kappa select, then cation exchange or SEC)
B2 gave an IC50 [6] of 894 pM, an IC50 [7] of 23 pM and an IC50 [8] of 21000 pM.
